US20240271119A1 (BROAD INSTITUTE, published 2024)

How the values were obtained:
[1] = target: YibK(V139R)-SH2 (periplasmic, from SS-YibK(V139R)-SH2); test: cell-based or functional assay
[2] = target: YibK-SH2 (periplasmic, from SS-YibK-SH2); test: cell-based or functional assay
[3] = target: CadC1-155-Leu(16)TM-GCN4(7P14P) (pMM114a) (E. coli; yeast); test: cell-based or functional assay
[4] = target: the molecule itself; test: Western blot of whole-cell lysate with and without DTT
[5] = target: GCN4(7P14P)-SH2 (periplasmic, from SSPelB-GCN4(7P14P)-SH2, pMM95a) (yeast); test: cell-based or functional assay

## YibK(V139R)-SH2 (periplasmic, from SS-YibK(V139R)-SH2)
[1]
  PcadBA-directed LuxAB expression: > 8 fold loss

## YibK-SH2 (periplasmic, from SS-YibK-SH2)
[2]
  PcadBA transcriptional activation (LuxAB luminescence): 66 fold
  overnight phage propagation: > 1000 fold

B1: Ω-graft scFv variant 37o5c2.1 (R1C F232A) (scFv)
scFv: CDIVMTQSPSSLSASVGDRVTITCRSSTGAVTTSNYASWVQEKPGKLFKGLIGGTNNRAPGVPSRFSGSLIGDKATLTISSLQPEDFATYFCALWYSNHWVFGQGTKVELKRGGGGSGGGGSGGGGSSGGGSEVKLLESGGGLVQPGGSLKLSCAVSGFSLTDYGVNWVRQAPGRGLEWIGVIWGDGITDYNSALKDRFIISKDDCENTVYLQMSKVRSDDTALYYCVTGLADYWGQGTLVTVSS
[3]
  overnight phage enrichment: 1000 fold

B2: YibK(V139R R146C)-SH2 (periplasmic, pMM103g) (other)
chain: MLDIVLYEPEIPQNTGNIIRLCANTGFRLHLIEPLGFTWDDKRLRRSGLDYHEFAEIKRHKTFEAFLESEKPKRLFALTTKGCPAHSQVKFKLGDYLMFGPETRGIPMSILNEMPMEQKIRIPMTANSRSMNLSNSVARTVYEAWCQLGYKGAVNLPEVKGGSGGSGGSGGSGGSSLEKHSWYHGPVSRNAAEYLLSSGINGSFLVRESESSPGQRSISLRYEGRVYHYRINTASDGKLYVSSESRFNTLAELVHHHSTVADGLITTLHYPAPKR
[4]
  binding result: binds

B3: Ω-graft-SH2 (periplasmic, from SS-Ω-graft-SH2) (scFv)
scFv: RDIVMTQSPSSLSASVGDRVTITCRSSTGAVTTSNYASWVQEKPGKLFKGLIGGTNNRAPGVPSRFSGSLIGDKATLTISSLQPEDFATYFCALWYSNHWVFGQGTKVELKRGGGGSGGGGSGGGGSSGGGSEVKLLESGGGLVQPGGSLKLSCAVSGFSLTDYGVNWVRQAPGRGLEWIGVIWGDGITDYNSALKDRFIISKDDCENTVYLQMSKVRSDDTALYYCVTGLFDYWGQGTLVTVSSGGSGGSGGSGGSGGSSLEKHSWYHGPVSRNAAEYLLSSGINGSFLVRESESSPGQRSISLRYEGRVYHYRINTASDGKLYVSSESRFNTLAELVHHHSTVADGLITTLHYPAPKR
[5]
  PcadBA-driven LuxAB expression: 30 fold
  phage enrichment in mock selection (PACE 12 hours or two PANCE passages): > 1000 fold

B4: Ω-graft(L231F F232A)-SH2 (periplasmic, from SS-Ω-graft(L231F F232A)-SH2) (scFv)
scFv: RDIVMTQSPSSLSASVGDRVTITCRSSTGAVTTSNYASWVQEKPGKLFKGLIGGTNNRAPGVPSRFSGSLIGDKATLTISSLQPEDFATYFCALWYSNHWVFGQGTKVELKRGGGGSGGGGSGGGGSSGGGSEVKLLESGGGLVQPGGSLKLSCAVSGFSLTDYGVNWVRQAPGRGLEWIGVIWGDGITDYNSALKDRFIISKDDCENTVYLQMSKVRSDDTALYYCVTGFADYWGQGTLVTVSSGGSGGSGGSGGSGGSSLEKHSWYHGPVSRNAAEYLLSSGINGSFLVRESESSPGQRSISLRYEGRVYHYRINTASDGKLYVSSESRFNTLAELVHHHSTVADGLITTLHYPAPKR
[5]
  PcadBA transcriptional activation (LuxAB) (fold decrease): 55
